{
  "source": "paper doi:10.1101/2024.01.08.574586",
  "data": [
    {"target": "recombinant biotinylated HIP1 protein (UniProt O00291)", "sequence (O00291 whole entry)": "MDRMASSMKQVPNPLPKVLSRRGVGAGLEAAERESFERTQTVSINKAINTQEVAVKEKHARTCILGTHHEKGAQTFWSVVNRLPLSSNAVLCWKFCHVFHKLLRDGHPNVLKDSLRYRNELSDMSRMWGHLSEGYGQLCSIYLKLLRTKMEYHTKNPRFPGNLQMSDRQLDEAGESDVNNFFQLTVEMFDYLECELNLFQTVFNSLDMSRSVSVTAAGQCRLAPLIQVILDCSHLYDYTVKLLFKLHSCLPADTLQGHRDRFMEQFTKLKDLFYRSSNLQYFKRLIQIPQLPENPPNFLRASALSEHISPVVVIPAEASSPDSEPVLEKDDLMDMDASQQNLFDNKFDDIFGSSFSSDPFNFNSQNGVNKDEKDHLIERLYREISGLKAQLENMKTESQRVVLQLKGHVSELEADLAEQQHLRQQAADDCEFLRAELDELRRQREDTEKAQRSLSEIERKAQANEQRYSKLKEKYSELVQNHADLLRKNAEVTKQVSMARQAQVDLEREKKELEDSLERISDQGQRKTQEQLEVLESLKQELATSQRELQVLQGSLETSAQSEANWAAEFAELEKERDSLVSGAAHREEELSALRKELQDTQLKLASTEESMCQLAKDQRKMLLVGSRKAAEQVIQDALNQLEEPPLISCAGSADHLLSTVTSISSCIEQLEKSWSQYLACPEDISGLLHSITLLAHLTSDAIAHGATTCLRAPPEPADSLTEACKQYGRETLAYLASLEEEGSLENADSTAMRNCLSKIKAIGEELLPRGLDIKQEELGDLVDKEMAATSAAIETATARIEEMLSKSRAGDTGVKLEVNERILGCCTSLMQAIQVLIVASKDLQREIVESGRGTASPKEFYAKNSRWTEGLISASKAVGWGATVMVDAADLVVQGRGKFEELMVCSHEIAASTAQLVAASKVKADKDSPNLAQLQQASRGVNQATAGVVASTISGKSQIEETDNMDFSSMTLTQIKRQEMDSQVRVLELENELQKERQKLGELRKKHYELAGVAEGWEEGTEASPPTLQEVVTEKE", "assay": "SPR", "units": {"Kd": "µM"}, "values": [
      {"substance": "K48-linked Ub2 (SPR analyte) (from UniProt P0CG48)", "Kd": 137},
      {"substance": "K48-linked Ub3 (SPR analyte) (from UniProt P0CG48)", "Kd": 66.2},
      {"substance": "K48/K63-linked branched Ub3 (SPR analyte) (from UniProt P0CG48)", "Kd": 0.07},
      {"substance": "K63-linked Ub2 (SPR analyte) (from UniProt P0CG48)", "Kd": 1.89},
      {"substance": "K63-linked Ub3 (SPR analyte) (from UniProt P0CG48)", "Kd": 1.55},
      {"substance": "mono Ub (SPR analyte) (from UniProt P0CG48 1-76) (natural protein)", "Kd": 197}
    ]}
  ]
}
